Values of other authors as cited in paper PMC3012698, “Characterization of a Novel Interaction between Bcl-2 Members Diva and Harakiri” (PLoS ONE, 2010).

Details: ref [10]
Description: Circular dichroism (CD) experiments were performed on Harakiri's cytosolic domain to obtain information on its conformational behavior. […] Thus, the cytosolic domain of Harakiri is largely unstructured. Consequently, the NMR spectra of Hrk_ΔTM show small amide ^1H chemical shift dispersion (from ∼7.9 to 8.7 ppm) and severe signal overlap ( Fig. 6 ). These spectral features together with the absen ...

| Substance | folding upon binding to Bcl-2 members | structural state of unbound BH3-only protein |
| --- | --- | --- |
| Bim: BH3-only protein Bim | undergoes partial folding upon binding to Bcl-2 members | unstructured |
| Bmf: BH3-only protein Bmf |  | unstructured |
